The target in this experiment is T1, SF3b core complex, 6xHis-tagged (SF3B1 454–1304, 6xHis-SF3B3, SF3B5, PHF5A) (human, UniProt O75533 454-1304; Q15393 1-1217; Q9BWJ5 1-86; Q7RTV0 1-110).
T1 construct: SF3B1, human, residues 454-1304; SF3B3, human, full-length cDNA; SF3B5, human, full-length cDNA; PHF5A, human, full-length cDNA; the 6xHis tag replaces the N-terminal Twin-Strep tag of SF3B3, so it is probably N-terminal; also called SF3b core (6xHis-tagged); source: HEK293F, co-transfected, purified; prepared as the SF3b core except that the Strep-tag on SF3B3 was replaced by a 6xHis tag; …
Put plainly: BLI; 6xHis-tagged SF3b core (20 µg/mL) captured on Ni-NTA biosensors; Flag-DDX42 or Flag-DDX46 as analyte; lysis buffer (20 mM HEPES-KOH pH 7.9, 150 mM NaCl, 1.5 mM MgCl2, 0.05% NP-40); about 100 s association, 100 s dissociation; 1:1 model; apparent constants. To be noted: both partners purified. (In BLI a coated tip is dipped into the sample, and binding shifts an interference pattern.)

T1 sequence (O75533 454-1304, chain 1 of 4): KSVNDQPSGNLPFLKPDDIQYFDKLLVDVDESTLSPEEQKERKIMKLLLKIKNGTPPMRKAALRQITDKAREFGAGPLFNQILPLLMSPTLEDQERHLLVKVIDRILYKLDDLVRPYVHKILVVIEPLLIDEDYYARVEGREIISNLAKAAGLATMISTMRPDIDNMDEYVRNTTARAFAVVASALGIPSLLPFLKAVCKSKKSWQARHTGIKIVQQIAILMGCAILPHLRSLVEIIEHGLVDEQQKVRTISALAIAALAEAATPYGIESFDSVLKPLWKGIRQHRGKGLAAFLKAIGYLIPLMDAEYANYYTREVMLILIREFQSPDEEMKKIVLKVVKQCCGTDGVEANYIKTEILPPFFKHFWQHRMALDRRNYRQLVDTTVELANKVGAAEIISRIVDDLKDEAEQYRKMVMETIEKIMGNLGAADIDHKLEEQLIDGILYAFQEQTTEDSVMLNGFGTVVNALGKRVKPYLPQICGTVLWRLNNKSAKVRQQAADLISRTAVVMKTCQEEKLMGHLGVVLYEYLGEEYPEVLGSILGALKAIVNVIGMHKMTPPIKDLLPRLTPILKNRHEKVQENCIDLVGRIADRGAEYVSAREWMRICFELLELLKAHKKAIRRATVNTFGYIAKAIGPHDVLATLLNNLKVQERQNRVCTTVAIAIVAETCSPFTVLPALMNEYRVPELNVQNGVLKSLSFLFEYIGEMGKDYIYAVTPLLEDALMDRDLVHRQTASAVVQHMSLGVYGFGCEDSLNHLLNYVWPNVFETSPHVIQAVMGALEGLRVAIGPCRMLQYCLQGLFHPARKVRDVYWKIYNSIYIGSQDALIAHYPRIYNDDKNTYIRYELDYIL
T1 sequence (Q15393 whole entry, chain 2 of 4, the tested form may be a part): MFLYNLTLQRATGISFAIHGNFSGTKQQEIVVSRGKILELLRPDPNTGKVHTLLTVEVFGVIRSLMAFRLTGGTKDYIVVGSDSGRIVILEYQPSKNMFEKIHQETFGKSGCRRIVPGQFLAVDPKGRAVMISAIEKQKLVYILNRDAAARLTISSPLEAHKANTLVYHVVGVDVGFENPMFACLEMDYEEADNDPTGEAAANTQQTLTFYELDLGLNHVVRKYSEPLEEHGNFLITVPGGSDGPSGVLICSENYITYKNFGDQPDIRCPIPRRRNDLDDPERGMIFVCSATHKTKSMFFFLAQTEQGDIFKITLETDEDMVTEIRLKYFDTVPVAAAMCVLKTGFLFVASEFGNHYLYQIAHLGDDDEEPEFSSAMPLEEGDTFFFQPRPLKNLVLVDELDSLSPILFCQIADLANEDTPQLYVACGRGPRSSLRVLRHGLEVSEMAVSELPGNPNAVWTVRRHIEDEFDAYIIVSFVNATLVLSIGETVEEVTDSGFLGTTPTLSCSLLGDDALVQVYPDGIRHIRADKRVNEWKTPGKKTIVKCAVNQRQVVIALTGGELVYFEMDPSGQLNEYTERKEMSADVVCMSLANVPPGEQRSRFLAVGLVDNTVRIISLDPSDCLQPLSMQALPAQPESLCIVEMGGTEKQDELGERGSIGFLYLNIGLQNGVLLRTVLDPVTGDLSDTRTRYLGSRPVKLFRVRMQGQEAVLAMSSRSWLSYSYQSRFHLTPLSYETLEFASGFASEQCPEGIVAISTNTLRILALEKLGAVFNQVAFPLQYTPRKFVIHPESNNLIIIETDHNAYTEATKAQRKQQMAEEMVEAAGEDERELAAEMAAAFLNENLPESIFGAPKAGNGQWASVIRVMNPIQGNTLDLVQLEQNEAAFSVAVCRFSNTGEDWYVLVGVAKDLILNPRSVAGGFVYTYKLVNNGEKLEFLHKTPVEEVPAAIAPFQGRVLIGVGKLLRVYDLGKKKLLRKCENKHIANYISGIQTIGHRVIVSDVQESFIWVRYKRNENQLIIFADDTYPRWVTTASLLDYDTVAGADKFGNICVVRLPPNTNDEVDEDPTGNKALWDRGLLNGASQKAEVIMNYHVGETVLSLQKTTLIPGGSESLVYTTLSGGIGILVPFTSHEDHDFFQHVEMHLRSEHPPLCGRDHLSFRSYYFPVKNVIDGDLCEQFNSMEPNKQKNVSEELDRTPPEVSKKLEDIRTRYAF
T1 sequence (Q9BWJ5 whole entry, chain 3 of 4, the tested form may be a part): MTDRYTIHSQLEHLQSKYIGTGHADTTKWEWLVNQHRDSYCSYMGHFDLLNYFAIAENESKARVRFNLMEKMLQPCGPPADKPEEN
T1 sequence (Q7RTV0 whole entry, chain 4 of 4, the tested form may be a part): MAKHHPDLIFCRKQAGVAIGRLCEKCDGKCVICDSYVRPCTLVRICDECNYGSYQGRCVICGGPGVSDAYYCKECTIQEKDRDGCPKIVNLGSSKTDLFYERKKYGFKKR

B1: Flag-DDX46 (natural protein)
chain: MGRESRHYRKRSASRGRSGSRSRSRSPSDKRSKRGDDRRSRSRDRDRRRERSRSRDKRRSRSRDRKRLRRSRSRERDRSRERRRSRSRDRRRSRSRSRGRRSRSSSPGNKSKKTENRSRSKEKTDGGESSKEKKKDKDDKEDEKEKDAGNFDQNKLEEEMRKRKERVEKWREEQRKKAMENIGELKKEIEEMKQGKKWSLEDDDDDEDDPAEAEKEGNEMEGEELDPLDAYMEEVKEEVKKFNMRSVKGGGGNEKKSGPTVTKVVTVVTTKKAVVDSDKKKGELMENDQDAMEYSSEEEEVDLQTALTGYQTKQRKLLEPVDHGKIEYEPFRKNFYVEVPELAKMSQEEVNVFRLEMEGITVKGKGCPKPIKSWVQCGISMKILNSLKKHGYEKPTPIQTQAIPAIMSGRDLIGIAKTGSGKTIAFLLPMFRHIMDQRSLEEGEGPIAVIMTPTRELALQITKECKKFSKTLGLRVVCVYGGTGISEQIAELKRGAEIIVCTPGRMIDMLAANSGRVTNLRRVTYVVLDEADRMFDMGFEPQVMRIVDNVRPDRQTVMFSATFPRAMEALARRILSKPIEVQVGGRSVVCSDVEQQVIVIEEEKKFLKLLELLGHYQESGSVIIFVDKQEHADGLLKDLMRASYPCMSLHGGIDQYDRDSIINDFKNGTCKLLVATSVAARGLDVKHLILVVNYSCPNHYEDYVHRAGRTGRAGNKGYAYTFITEDQARYAGDIIKALELSGTAVPPDLEKLWSDFKDQQKAEGKIIKKSSGFSGKGFKFDETEQALANERKKLQKAALGLQDSDDEDAAVDIDEQIESMFNSKKRVKDMAAPGTSSVPAPTAGNAEKLEIAKRLALRINAQKNLGIESQDVMQQATNAILRGGTILAPTVSAKTIAEQLAEKINAKLNYVPLEKQEEERQDGGQNESFKRYEEELEINDFPQTARWKVTSKEALQRISEYSEAAITIRGTYFPPGKEPKEGERKIYLAIESANELAVQKAKAEITRLIKEELIRLQNSYQPTNKGRYKVL
notes: DDX46, human; source: HEK293F, overexpressed, purified (anti-Flag M2, Hitrap Heparin)
With B1, the Kd was found to be 66 nM.

B2: Flag-DDX42 (full-length) (natural protein)
chain: MNWNKGGPGTKRGFGFGGFAISAGKKEEPKLPQQSHSAFGATSSSSGFGKSAPPQLPSFYKIGSKRANFDEENAYFEDEEEDSSNVDLPYIPAENSPTRQQFHSKPVDSDSDDDPLEAFMAEVEDQAARDMKRLEEKDKERKNVKGIRDDIEEEDDQEAYFRYMAENPTAGVVQEEEEDNLEYDSDGNPIAPTKKIIDPLPPIDHSEIDYPPFEKNFYNEHEEITNLTPQQLIDLRHKLNLRVSGAAPPRPGSSFAHFGFDEQLMHQIRKSEYTQPTPIQCQGVPVALSGRDMIGIAKTGSGKTAAFIWPMLIHIMDQKELEPGDGPIAVIVCPTRELCQQIHAECKRFGKAYNLRSVAVYGGGSMWEQAKALQEGAEIVVCTPGRLIDHVKKKATNLQRVSYLVFDEADRMFDMGFEYQVRSIASHVRPDRQTLLFSATFRKKIEKLARDILIDPIRVVQGDIGEANEDVTQIVEILHSGPSKWNWLTRRLVEFTSSGSVLLFVTKKANAEELANNLKQEGHNLGLLHGDMDQSERNKVISDFKKKDIPVLVATDVAARGLDIPSIKTVINYDVARDIDTHTHRIGRTGRAGEKGVAYTLLTPKDSNFAGDLVRNLEGANQHVSKELLDLAMQNAWFRKSRFKGGKGKKLNIGGGGLGYRERPGLGSENMDRGNNNVMSNYEAYKPSTGAMGDRLTAMKAAFQSQYKSHFVAASLSNQKAGSSAAGASGWTSAGSLNSVPTNSAQQGHNSPDSPVTSAAKGIPGFGNTGNISGAPVTYPSAGAQGVNNTASGNNSREGTGGSNGKRERYTENRGSSRHSHGETGNRHSDSPRHGDGGRHGDGYRHPESSSRHTDGHRHGENRHGGSAGRHGENRGANDGRNGESRKEAFNRESKMEPKMEPKVDSSKMDKVDSKTDKTADGFAVPEPPKRKKSRWDS
notes: DDX42, human, full-length cDNA; N-plug residues 69-81, helix alpha-3 114-135, helices alpha-2/alpha-1 145-167, helicase domain 207-643; source: HEK293F, transfected (pCAG): co-expressed with the SF3b core; alone as bait in lysate; not shown: Flag, N-terminal, kept
On to B2, for which the Kd amounted to 23 nM.

(Values after article PMC9935549, “Mechanisms of the RNA helicases DDX42 and DDX46 in human U2 snRNP assembly” (Nature Communications, 2023).)
